This passage reports binding result and Kd results from patent US20160009801A1 (EMORY UNIVERSITY, published 2016).

Substitutions are numbered along the chain they refer to.

Assay [1] addresses T1, human glycoprotein Ib alpha (GPIba) on platelets (human, UniProt P07359 17-652).
T1 construct: whole, on cells; On platelets GPIba is part of the GPIb-IX-V complex; also called human GPIba; washed human platelets
The assay can be described thus: flow cytometry on washed human platelets, FITC goat anti-mouse IgG. (In general: Flow cytometry measures light scatter and fluorescence of single cells or particles in a stream.)

The target in assay [2] is T2, purified human GPIb-IX complex (human, UniProt P07359 17-652; P13224 26-206; P14770 17-177).
T2 construct: mature; Native complex purified from outdated human apheresis platelets; also called purified human glycoprotein (GP)Ib-IX; immobilized GPIb-IX
The assay can be described thus: ELISA, purified mAb titrated on immobilized purified human GPIb-IX, fitted Kd. For orientation: ELISA stands for enzyme-linked immunosorbent assay.
Experimental: (A, C, D) GPIb-IX or the peptide was immobilized in microtiter plates. Purified mAbs, each identified by the clone name and colored as indicated, and negative controls, in the form of mouse IgG or BSA, were added to the coated wells. The bound Ab was detected with biotinylated goat anti-mouse IgG. Data are presented as the mean SD (n=3).
After incubation in the blocking buffer (20 mmol L⁻¹ HEPES, 0.2 mol L⁻¹ NaCl, 0.05% Tween-20, 2% BSA, pH 7.4) at room temperature (RT) for 2 h, different doses of normal mouse IgG or purified mAb dissolved in the blocking buffer were added to the wells and incubated for 1 h. The wells were then washed three times with the blocking buffer without BSA and incubated for an additional 1 h with biotinylated goat anti-mouse IgG (1:50 in the blocking buffer). After three washes, the wells were incubated for 1 h with streptavidin alkaline phosphatase (1:2000 in the blocking buffer).

The target of assay [3] is T3, wild-type murine GPIba on WT (C57BL/6J) mouse platelets (mouse, UniProt O35930 17-734).
T3 construct: whole, on cells; also called mouse GPIba; WT mouse platelets
T3 sequence (looked up): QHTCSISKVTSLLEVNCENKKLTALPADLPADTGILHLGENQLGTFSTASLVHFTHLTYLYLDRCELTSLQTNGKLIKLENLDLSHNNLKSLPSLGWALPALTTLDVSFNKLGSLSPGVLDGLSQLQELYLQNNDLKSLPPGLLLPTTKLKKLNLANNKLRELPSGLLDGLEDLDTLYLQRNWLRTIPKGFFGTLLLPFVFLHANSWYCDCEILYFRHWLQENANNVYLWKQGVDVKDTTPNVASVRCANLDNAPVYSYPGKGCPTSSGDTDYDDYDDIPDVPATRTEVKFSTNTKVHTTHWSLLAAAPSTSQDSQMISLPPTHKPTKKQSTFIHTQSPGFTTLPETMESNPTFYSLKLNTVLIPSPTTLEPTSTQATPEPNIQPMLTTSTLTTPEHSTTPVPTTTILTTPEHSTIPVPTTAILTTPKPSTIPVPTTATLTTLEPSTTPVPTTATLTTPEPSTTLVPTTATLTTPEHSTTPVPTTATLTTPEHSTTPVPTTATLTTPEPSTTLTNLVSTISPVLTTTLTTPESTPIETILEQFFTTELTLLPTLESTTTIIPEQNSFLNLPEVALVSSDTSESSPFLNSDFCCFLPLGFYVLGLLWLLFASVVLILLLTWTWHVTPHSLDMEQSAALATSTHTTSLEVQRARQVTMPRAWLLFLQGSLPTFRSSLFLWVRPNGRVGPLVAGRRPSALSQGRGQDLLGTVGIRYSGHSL
The assay can be described thus: flow cytometry, biotin-labeled 5G6 on mouse whole blood, gated on platelets, FITC-streptavidin.
Experimental: The binding to platelets was analyzed by flow cytometry with gating specific on platelets.

Usually Kd stands for the concentration at which binding is half-saturated.

B1: monoclonal antibody 3D1 (antibody, V domains shown)
VH: QIQLVQSGPELKKPGETVKISCKASGYTFTDFAMHWVKQAPRKGLKWMGWINTETGEPTYADDFKGRFAFSLGTSASTAFLQINNLKNEDTATYFCSSDPLDYWGQGTTLTVSS
VL: DVVVTQTPLSLPVSFGDQVSISCRSSQSLTNSYGNTYLSWFLHKPGQSPQLLIYEISNRFSGVPDRFSGSGSGTDFTLKISTIKPEDLGIYYCLQGTHQPWTFGGGTKLEIK
notes: Mouse hybridoma mAb; also called 3D1.C1; 3D1.E3
For the molecule B1, the binding result in assay [1] is reported as “binds”.

B2: monoclonal antibody 5G6 (antibody, V domains shown)
VH: QVTLKESGPGILQPSQTLSLTCSFSGFSLSTSNMGVVWIRQPSGKGLEWLLHILWNDGKFYNPALKSRLTISKDTYNNQVFLKIANVDTADTATYYCARLFTTTTSGYFDVWGAGTTVTVSS
VL: DIQMTQSPASLSASVGETVTITCRASGNIYNYLAWYQQKQGKSPQLLVYNAKTLADGVPSRFSGSGSGTQYSLKINSLQPEDFGSYFCQHFWDTPWTFGGGTKLEIK
notes: Mouse hybridoma mAb raised against the human GPIba Glu455-Phe478 peptide; also called clone 5G6; 5G6.B4
In assay [2], B2 yielded a Kd of 3.29 nM. For the same molecule, in assay [3], the binding result is “no binding (tested: 4 µg mL^-1)”.

B3: monoclonal antibody 15C6 (antibody, V domains shown)
VH: B2 VH with P42S, T102S
VL: B2 VL with Y30H, K52E, G66E, S85T, F87Y
notes: Mouse hybridoma mAb; also called 15C6.D3
In the case of B3, the dissociation constant Kd in assay [2] is 28.2 nM.
